Patent publication US20210253720A1 (KEROS THERAPEUTICS, published 2021)

T1: ALK2-FC (UniProt Q04771 21-123, limits assumed)
T1 construct: Only the embodiments speak of 'human ALK2'; not shown: Fc part
T1 sequence (looked up): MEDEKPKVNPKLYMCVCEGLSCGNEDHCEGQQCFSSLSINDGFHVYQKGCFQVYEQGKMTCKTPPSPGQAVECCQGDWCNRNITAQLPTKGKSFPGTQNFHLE


Key:
[1] = biological target: ALK2 on C2C12-BRE-Luciferase cells
ALK2-FC [2] = biological target: T1, ALK2-FC; assay: BLI, ForteBio Octet RED384; monovalent fAB-FH against ALK2-FC
[3] = biological target: ALK2 on C2C12-BRE-Luciferase cells; remark: listed apart in the source
ALK2-FC [4] = biological target: T1, ALK2-FC; assay: BLI, ForteBio Octet; fAB against ALK2-FC
ALK2-FC [5] = biological target: T1, ALK2-FC; assay: BLI, ForteBio Octet; fAB against ALK2-FC; fAB, ForteBio Octet against ALK2-FC

Sequence of ALK2 on C2C12-BRE-Luciferase cells (P37172 whole entry): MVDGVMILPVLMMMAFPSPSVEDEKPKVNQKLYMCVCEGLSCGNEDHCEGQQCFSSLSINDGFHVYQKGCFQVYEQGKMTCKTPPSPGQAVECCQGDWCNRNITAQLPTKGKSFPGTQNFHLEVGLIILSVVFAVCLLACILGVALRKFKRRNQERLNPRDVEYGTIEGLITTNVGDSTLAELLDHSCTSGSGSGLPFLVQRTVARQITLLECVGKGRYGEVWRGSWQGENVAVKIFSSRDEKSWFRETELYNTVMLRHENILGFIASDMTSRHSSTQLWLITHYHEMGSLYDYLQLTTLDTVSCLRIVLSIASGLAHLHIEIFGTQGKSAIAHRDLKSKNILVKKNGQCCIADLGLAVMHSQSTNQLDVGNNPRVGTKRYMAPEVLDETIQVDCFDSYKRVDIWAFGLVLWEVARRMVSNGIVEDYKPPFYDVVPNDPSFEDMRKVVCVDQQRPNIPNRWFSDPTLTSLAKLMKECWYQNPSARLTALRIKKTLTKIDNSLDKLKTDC

| Binder | IC50 (3 Param fit), inhibition of BMP6 (40 ng/mL)-induced SMAD1 (BRE) luciferase signal in C2C12 cells, ng/mL is the unit of the x axis [1] | IC50 (4 Param fit), inhibition of BMP6 (40 ng/mL)-induced SMAD1 (BRE) luciferase signal in C2C12 cells, ng/mL is the unit of the x axis [1] | Kd (ALK2-FC [2]) | koff (ALK2-FC [2]) | IC50, inhibition of BMP6 (40 ng/mL)-induced SMAD1 (BRE) luciferase signal in C2C12 cells; fit type not given [3] | Kd (ALK2-FC [4]) | Kd (ALK2-FC [5]) |
| --- | --- | --- | --- | --- | --- | --- | --- |
| Antibody 5, monovalent fAB in fAB-FH format (Fab, V domains shown) VH: EVQLLESGGGLVQPGGSLRLSCAASGFTFSSAAMHWVRQAPGKGLEWVSVISSDGGSTYYADSVKGRFTISRDNSKNTLYLQMNSLRAEDTAVYYCARAGFILGSLGVAWMDVWGQGTLVTVSS VL: DIELTQPPSVSVSPGQTASITCSGDSLGSKSVHWYQQKPGQAPVLVIYRDSKRPSGIPERFSGSNSGNTATLTISGTQAEDEADYYCQTYDWSHFGWVFGGGTKLTVLG | 710 ng/mL | 754 ng/mL |  |  |  |  |  |
| Antibody 8, monovalent fAB in fAB-FH format (Fab, V domains shown, also called Anti-ALK2 fAB) VH: EVQLLESGGGLVQPGGSLRLSCAASGFTFSDYAMHWVRQAPGKGLEWVSSIFYSGSNTYYADSVKGRFTISRDNSKNTLYLQMNSLRAEDTAVYYCARPKSYASGPFAYWGQGTLVTVSS VL: DIELTQPPSVSVSPGQTASITCSGDALRYYIAHWYQQKPGQAPVLVIYYNNNRPSGIPERFSGSNSGNTATLTISGTQAEDEADYYCQSYGPGSVVFGGGTKLTVLG |  |  | 6.3 nM | 0.00576 s⁻¹ | 0.367 µg/mL |  |  |
| Antibody 3, monovalent fAB in fAB-FH format (Fab, V domains shown, also called Anti-ALK2 fAB) VH: EVQLVESGGGLVKPGGSLRLSCAASGFTFNSSAMSWVRQAPGKGLEWVGRIKSKRDGYTTDYAAPVKGRFTISRDDSKNTLYLQMNSLKTEDTAVYYCARDYGGLKFDYWGQGTLVTVSS VL: DIELTQPPSVSVSPGQTASITCSGDNIGTKYAYWYQQKPGQAPVLVIYGDSDRPSGIPERFSGSNSGNTATLTISGTQAEDEADYYCYSADAQQMKAVFGGGTKLTVLG | 1460 ng/mL | 1490 ng/mL | 4.4 nM | 0.00149 s⁻¹ |  | 4.4 nM |  |
| Antibody 1, monovalent fAB in fAB-FH format (Fab, V domains shown, also called Anti-ALK2 fAB) VH: QVQLVQSGAEVKKPGSSVKVSCKASGGTFSSYGVSWVRQAPGQGLEWMGGIIPHFGIANYAQKFQGRVTITADESTSTAYMELSSLRSEDTAVYYCAREIGSLDIWGQGTLVTVSS VL: DIVLTQPPSVSGAPGQRVTISCSGSSSNIGSNYVSWYQQLPGTAPKVLIYKNNHRPSGVPDRFSGSKSGTSASLAITGLQAEDEADYYCASWDHSDRFYVFGGGTKLTVLG | 1750 ng/mL | 1830 ng/mL | 4 nM | 0.00172 s⁻¹ |  |  | 4 nM |

The remaining binders from weak to strong by Kd (ALK2-FC [2]), led by results:

| IC50 (3 Param fit), inhibition of BMP6 (40 ng/mL)-induced SMAD1 (BRE) luciferase signal in C2C12 cells, ng/mL is the unit of the x axis [1] | IC50 (4 Param fit), inhibition of BMP6 (40 ng/mL)-induced SMAD1 (BRE) luciferase signal in C2C12 cells, ng/mL is the unit of the x axis [1] | Kd (ALK2-FC [2]) | koff (ALK2-FC [2]) | IC50, inhibition of BMP6 (40 ng/mL)-induced SMAD1 (BRE) luciferase signal in C2C12 cells; fit type not given [3] | Kd (ALK2-FC [4]) | Kd (ALK2-FC [5]) | Binder |
| --- | --- | --- | --- | --- | --- | --- | --- |
|  |  | 14 nM | 0.0149 s⁻¹ | 1.27 µg/mL |  |  | Antibody 9, monovalent fAB in fAB-FH format (Fab, V domains shown, also called Anti-ALK2 fAB) VH: QVQLVQSGAEVKKPGSSVKVSCKASGGTFSTHAISWVRQAPGQGLEWMGLIQPRFGTANYAQKFQGRVTITADESTSTAYMELSSLRSEDTAVYYCARDYYGGMAYWGQGTLVTVSS VL: DIVLTQPPSVSGAPGQRVTISCSGSSSNIGQNYVSWYQQLPGTAPKLLIYDNSKRPSGVPDRFSGSKSGTSASLAITGLQAEDEADYYCSSWDLLSKSRVFGGGTKLTVLG |
|  |  | 2.9 nM | 0.00349 s⁻¹ | 1.16 µg/mL |  |  | Antibody 6, monovalent fAB in fAB-FH format (Fab, V domains shown, also called Anti-ALK2 fAB) VH: EVQLLESGGGLVQPGGSLRLSCAASGFTFGRFVMHWVRQAPGKGLEWVSVIGYSGSSTYYADSVKGRFTISRDNSKNTLYLQMNSLRAEDTAVYYCAREPGYYYPSGYYRGPGYWMDVWGQGTLVTVSS VL: DIQMTQSPSSLSASVGDRVTITCRASQGISGNWLTWYQQKPGKAPKLLIYDASNLQSGVPSRFSGSGSGTDFTLTISSLQPEDFATYYCHQSYRGPMTFGQGTKVEIKR |
| 465 ng/mL | 462 ng/mL | 1.8 nM | 0.000759 s⁻¹ |  |  |  | Antibody 4, monovalent fAB in fAB-FH format (Fab, V domains shown, also called Anti-ALK2 fAB) VH: QVQLVQSGAEVKKPGSSVKVSCKASGGTFSSYAIHWVRQAPGQGLEWMGRIIPDFGTANYAQKFQGRVTITADESTSTAYMELSSLRSEDTAVYYCARGPTQAIHYFAYWGQGTLVTVSS VL: DIELTQPPSVSVSPGQTASITCSGDNLRKYSAHWYQQKPGQAPVLVIYYDNKRPSGIPERFSGSNSGNTATLTISGTQAEDEADYYCQVYASVHRMVFGGGTKLTVLG |
| 145 ng/mL | 221 ng/mL | 0.7 nM | 0.000357 s⁻¹ |  | 0.7 nM |  | Antibody 2, monovalent fAB in fAB-FH format (Fab, V domains shown, also called Anti-ALK2 fAB) VH: EVQLVESGGGLVKPGGSLRLSCAASGFTFSSHAMSWVRQAPGKGLEWVGRIKSKADSGTTDYAAPVKGRFTISRDDSKNTLYLQMNSLKTEDTAVYYCARDYGVAFAYWGQGTLVTVSS VL: DIELTQPPSVSVSPGQTASITCSGDSIPSFFASWYQQKPGQAPVLVIYRDSNRPSGIPERFSGSNSGNTATLTISGTQAEDEADYYCYVTAPWKSIWVFGGGTKLTVLG |
